Source: US9259432B1, “Composition and methods for targeted delivery of a therapeutic compound to the brain or spinal cord of a subject for treatment of neurodegenerative diseases” (Parminder J. S. Vig, priority 2011, dated 2016)

Key:
[1] = tested on: differentiated GFP-ATXN1[82Q] SHSY5Y cells; experiment: Oxyblot of S100B induced oxidized proteins; assay type: cell-based; details: 50 μM pretreatment 1 hr, then 5 μM S100B 2 hrs; oxidized protein/β-tubulin
Method: FIG. 16: (a) GFP-ATXN1[82Q] and (b) GFP-ATXN1[30Q] SHSY5Y stable cells were placed on 12-well plates and subjected to treatment with 25 nM TPA for 3 days to produce differentiated SHSY5Y cell lines. Next, the cells were pretreated with 50 μM Synb1-ELP-TRTK for 1 hr then treated with 5 μM S100B for 2 hrs or treated with 150 μM H2O2 for 2 hrs, where control cells were treated with serum free media for 3 hrs. Then the cells were lysed and analyzed with the Oxyblot kit and a β-tubulin antibody. Shown is the resulting oxyblot/western blot data. (c) Optical densities of the protein bands were taken using ImageJ software. Graphs shown the ratio of oxidized protein/β-tubulin protein normalized to the control. Statistics were taken using the student's t-test. * GFP-ATXN1[82Q]: S100B vs Synb1-ELP-TRTK+S100B, P<0.05. ψ GFP-ATXN1[82Q]: H2O2 vs GFP-ATXN1[30Q]: H2O2, P<0.05.
GFP-ATXN1[82Q] or GFP-ATXN1[30Q] stable cells were placed on 12-well plates at a concentration of 60,000 cells per well. Cells were treated with 25 nM TPA for 3 days to produce differentiated SHSY5Y cell lines. […] Cell lysates were analyzed with the Oxyblot kit according to manufacturer's protocol ([…]) and with a β-tubulin antibody (Sigma), where 5 μgs of protein was loaded in each well of 4-20% acrylamide gel (Bio-Rad Laboratories, Hercules, Calif., USA). […]

S100B = target: T1, S100B (Homo sapiens, UniProt P04271); experiment: Thermal pull-down assay of ELP polypeptide with S100B; assay type: binding; details: 60 μM polypeptide, western blot with S100B antibody
T1 construct: purchased Sigma-Aldrich
T1 sequence (P04271 2-92 limits assumed): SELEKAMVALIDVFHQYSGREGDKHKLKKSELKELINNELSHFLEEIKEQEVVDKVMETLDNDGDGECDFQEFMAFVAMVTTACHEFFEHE
Method: FIG. 9 is a blot showing that CPP-ELP-TRTK12 interacts with S100B protein in vitro. Solutions containing 60 μM Synb1-ELP-TRTK12 or Synb1-ELP were mixed with or without 1 μM S100B in PBS for 30 min at 37° C. The solutions were then incubated in a hot water bath maintained at 50° C. for 5 minutes to induce SynB1-ELP-TRTK12 aggregation. After heating, the solutions were centrifugated at 14,000 rpm to recover the ELP polypeptide aggregates (pellets). The ELP polypeptide pellets were washed 3 times with PBS and reheated and pelleted between washes. To assess ELP polypeptide-S100B interactions, the remaining ELP pellets were subjected to western blotting using a S100B antibody.
Shown are the turbidity assay results of various concentrations of (b) Synb1-ELP-GGC and (c) Synb1-ELP-TRTK heated from 25° C. to 75° C. […] (d) Shown is the thermal pull-down assay procedure, where a solution containing S100B and Synb1-ELP-TRTK protein are allowed to interact at 37° C. in a microcentrifuge tube. […] Once the supernatant is removed the protein pellet can be analyzed by western blotting techniques to reveal protein-protein interactions. […] Solutions containing 60 μM Synb1-ELP-TRTK or Synb1-ELP-GGC (control peptide) were mixed with or without 1 μM S100B and subjected to thermal pull-down assay procedure and analyzed by western blotting using an S100B antibody. […]

interaction with S100B dimer and monomer (FIG. 9) (S100B; 1 μM S100B in PBS, aggregation at 50° C.): strong interaction
interaction with S100B (FIG. 11E) (S100B; 1 μM S100B, thermal cycling at 42° C.): bound both S100B monomers and dimers
Substance: Synb1-ELP-TRTK: thermally responsive S100B inhibitory polypeptide: Synb1 cell penetrating peptide, elastin-like polypeptide (ELP) and TRTK12 peptide fused
S100B's impact on the level of oxidized proteins [1]: significantly blocked
